By Kd is commonly meant the constant that tells how readily two partners part at equilibrium. What is called koff is the first-order rate constant of dissociation.

Experiment [1] has as its target T1, Human C3b, site-specifically biotinylated at its thioester cysteine (human, UniProt P01024 23-667; P01024 749-1663). As to the kind of experiment: SPR.
The target of experiment [2] is T1, Human C3b, site-specifically …. Kind of experiment: SPR. This is another data set of the same source. Background: In SPR one partner is held on a chip, and binding of the other changes the refractive index at the surface.

T1 sequence (P01024 23-667, chain 1 of 2): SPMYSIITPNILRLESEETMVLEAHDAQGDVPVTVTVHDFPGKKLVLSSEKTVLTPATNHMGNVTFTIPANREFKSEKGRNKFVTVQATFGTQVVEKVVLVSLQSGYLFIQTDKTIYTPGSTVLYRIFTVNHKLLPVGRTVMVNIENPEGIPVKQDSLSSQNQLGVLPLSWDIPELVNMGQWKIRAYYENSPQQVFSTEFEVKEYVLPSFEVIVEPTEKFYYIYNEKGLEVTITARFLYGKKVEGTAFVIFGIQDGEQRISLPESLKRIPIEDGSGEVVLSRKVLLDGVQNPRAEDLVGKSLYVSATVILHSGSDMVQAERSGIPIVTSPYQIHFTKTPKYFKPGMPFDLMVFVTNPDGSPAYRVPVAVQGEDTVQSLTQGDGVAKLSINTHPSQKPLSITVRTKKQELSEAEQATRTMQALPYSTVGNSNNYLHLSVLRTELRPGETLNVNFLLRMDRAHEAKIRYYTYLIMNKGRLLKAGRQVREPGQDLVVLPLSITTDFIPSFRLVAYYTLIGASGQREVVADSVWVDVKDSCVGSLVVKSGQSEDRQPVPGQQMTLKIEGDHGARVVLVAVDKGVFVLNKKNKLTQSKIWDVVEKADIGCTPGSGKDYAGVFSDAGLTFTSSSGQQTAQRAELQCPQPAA
T1 sequence (P01024 749-1663, chain 2 of 2): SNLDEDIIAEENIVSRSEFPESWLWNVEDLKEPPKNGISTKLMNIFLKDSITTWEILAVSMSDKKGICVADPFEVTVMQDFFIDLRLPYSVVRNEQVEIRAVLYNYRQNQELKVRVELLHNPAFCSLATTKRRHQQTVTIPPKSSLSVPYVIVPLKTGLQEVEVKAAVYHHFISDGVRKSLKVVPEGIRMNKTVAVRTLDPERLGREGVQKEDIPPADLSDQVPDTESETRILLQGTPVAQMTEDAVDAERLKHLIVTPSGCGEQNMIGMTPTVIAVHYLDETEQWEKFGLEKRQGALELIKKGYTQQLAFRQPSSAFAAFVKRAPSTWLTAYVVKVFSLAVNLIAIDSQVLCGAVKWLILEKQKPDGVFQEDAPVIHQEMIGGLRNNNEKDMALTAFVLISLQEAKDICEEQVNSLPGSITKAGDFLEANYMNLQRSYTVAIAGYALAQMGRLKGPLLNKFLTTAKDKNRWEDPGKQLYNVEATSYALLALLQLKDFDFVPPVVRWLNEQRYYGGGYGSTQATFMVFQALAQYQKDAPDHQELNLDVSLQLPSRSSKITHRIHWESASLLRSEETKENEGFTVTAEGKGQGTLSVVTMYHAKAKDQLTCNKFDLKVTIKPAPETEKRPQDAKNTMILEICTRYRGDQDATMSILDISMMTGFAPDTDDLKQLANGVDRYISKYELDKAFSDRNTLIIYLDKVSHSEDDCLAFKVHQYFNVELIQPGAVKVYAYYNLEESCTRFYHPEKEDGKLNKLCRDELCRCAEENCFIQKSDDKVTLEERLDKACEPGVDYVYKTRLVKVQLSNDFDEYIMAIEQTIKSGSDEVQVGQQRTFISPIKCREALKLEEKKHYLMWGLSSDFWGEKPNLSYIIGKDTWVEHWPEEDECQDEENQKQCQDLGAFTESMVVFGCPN

B1: C-terminal domain of the Staphylococcus aureus immune evasion protein Efb (domain or fragment)
chain: TDATIKKEQKLIQAQNLVREFEKTHTVSAHRKAQKAVNLVSFEYKVKKMVLQERIDNVLKQGLV
B1: in experiment [1], the dissociation constant Kd turned out to be 0.11 nM, the “half-life of the complex” value was around 1 h and the koff came to 0.000187 s⁻¹.

B2: CCP domains 19-20 of human Factor H (domain or fragment)
chain: GKCGPPPPIDNGDITSFPLSVYAPASSVEYQCQNLYQLEGNKRITCRNGQWSEPPKCLHPCVISREIMENYNIALRWTAKQKLYSRTGESVEFVCKRGYRLSSRSHTLRTTCWDGKLEYPTCAKR
Turning to B2, the binding result in experiment [2] is on record as “binds”.

(Values after publication PMC9842190 (Seminars in immunology, 2022).)
